Biological target: Mlp2p–protein A (PrA) (S. cerevisiae, UniProt P40457 1-1679)
Test: far-Western, overlay or dot blot

Mlp2p–protein A (PrA), sequence (P40457 whole entry): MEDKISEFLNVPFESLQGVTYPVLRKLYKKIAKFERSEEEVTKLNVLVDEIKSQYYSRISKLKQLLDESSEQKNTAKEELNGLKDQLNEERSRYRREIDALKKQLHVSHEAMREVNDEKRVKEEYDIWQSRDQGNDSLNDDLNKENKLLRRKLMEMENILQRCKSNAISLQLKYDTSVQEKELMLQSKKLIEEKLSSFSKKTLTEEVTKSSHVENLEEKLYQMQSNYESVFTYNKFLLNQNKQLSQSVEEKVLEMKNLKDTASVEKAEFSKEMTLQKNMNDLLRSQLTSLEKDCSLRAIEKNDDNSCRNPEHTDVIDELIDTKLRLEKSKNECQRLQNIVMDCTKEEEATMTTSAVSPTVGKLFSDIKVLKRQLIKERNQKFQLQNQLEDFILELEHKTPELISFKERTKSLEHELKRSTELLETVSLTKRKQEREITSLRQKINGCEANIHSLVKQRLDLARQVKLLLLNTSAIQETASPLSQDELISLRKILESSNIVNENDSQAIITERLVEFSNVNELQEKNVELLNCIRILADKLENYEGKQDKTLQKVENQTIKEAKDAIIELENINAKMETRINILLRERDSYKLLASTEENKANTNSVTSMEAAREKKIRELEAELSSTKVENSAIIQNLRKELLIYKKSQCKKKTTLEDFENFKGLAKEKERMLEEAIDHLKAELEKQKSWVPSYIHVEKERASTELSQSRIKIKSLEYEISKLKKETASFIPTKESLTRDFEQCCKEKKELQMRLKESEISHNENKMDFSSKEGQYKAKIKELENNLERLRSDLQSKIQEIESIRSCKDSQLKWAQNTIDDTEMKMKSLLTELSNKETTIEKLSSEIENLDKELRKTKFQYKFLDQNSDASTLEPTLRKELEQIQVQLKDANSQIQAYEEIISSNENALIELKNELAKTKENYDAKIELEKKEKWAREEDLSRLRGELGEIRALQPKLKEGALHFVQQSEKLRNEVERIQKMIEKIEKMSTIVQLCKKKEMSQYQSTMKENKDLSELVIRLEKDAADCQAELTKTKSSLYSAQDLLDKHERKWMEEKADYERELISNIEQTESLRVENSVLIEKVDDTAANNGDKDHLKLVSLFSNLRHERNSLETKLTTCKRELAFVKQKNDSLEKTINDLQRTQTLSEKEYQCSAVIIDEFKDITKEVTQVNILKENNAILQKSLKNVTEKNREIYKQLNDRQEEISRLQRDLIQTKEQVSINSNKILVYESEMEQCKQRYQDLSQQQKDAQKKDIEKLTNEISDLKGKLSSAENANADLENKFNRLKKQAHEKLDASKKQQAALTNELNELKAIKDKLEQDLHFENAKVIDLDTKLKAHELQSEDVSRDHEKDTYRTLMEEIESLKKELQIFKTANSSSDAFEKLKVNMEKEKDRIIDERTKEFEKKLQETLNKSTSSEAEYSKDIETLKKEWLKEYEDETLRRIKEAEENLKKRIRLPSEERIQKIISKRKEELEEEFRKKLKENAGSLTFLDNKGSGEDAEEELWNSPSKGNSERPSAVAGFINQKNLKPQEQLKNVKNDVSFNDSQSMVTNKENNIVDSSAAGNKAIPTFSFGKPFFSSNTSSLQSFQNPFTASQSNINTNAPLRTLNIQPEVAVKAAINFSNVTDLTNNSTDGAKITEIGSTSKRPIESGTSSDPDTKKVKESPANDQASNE

| binding result | Binder |
| --- | --- |
| binds | Spc110p (natural protein, UniProt P32380 1-944, looked up) MDEASHLPNGSLKNMEFTPVGFIKSKRNTTQTQVVSPTKVPNANNGDENEGPVKKRQRRSIDDTIDSTRLFSEASQFDDSFPEIKANIPPSPRSGNVDKSRKRNLIDDLKKDVPMSQPLKEQEVREHQMKKERFDRALESKLLGKRHITYANSDISNKELYINEIKSLKHEIKELRKEKNDTLNNYDTLEEETDDLKNRLQALEKELDAKNKIVNSRKVDDHSGCIEEREQMERKLAELERKLKTVKDQVLELENNSDVQSLKLRSKEDELKNLMNELNELKSNAEEKDTQLEFKKNELRKRTNELNELKIKSDEMDLQLKQKQNESKRLKDELNELETKFSENGSQSSAKENELKMLKNKIAELEEEISTKNSQLIAKEGKLASLMAQLTQLESKLNQRDSQLGSREEELKKTNDKLQKDIRIAREETVSKDERIIDLQKKVKQLENDLFVIKKTHSESKTITDNELESKDKLIKILENDLKVAQEKYSKMEKELKEREFNYKISESKLEDEKTTLNEKISNLAAENSQLKNKIEDNSTATHHMKENYEKQLESLRKDIEEYKESAKDSEDKIEELKIRIAENSAKVSEKRSKDIKQKDEQISDLTQNLKLQEDEISSLKSIIDRYKKDFNQLKSEQSNIQHDLNLQILNLENKLIESEDELKSLRDSQKIEIENWKRKYNNLSLENDRLLTEKESASDKEREISILNRKLDEMDKEKWNLQESKEKYKRELQKVITANDRLRREKEELNENSNNIRIMEDKMTRIKKNYLSEITSLQEENRRLEERLILNERRKDNDSTMQLNDIISYYKLKYHSEVRHNNDLKVINDYLNKVLALGTRRLRLDTRKGEHSLNISLPDDDELDRDYYNSHVYTRYHDYEYPLRFNLNRRGPYFERRLSFKTVALLVLACVRMKRIAFYRRSDDNRLRILRDRIESSSGRISW |
| binds | Spc29p (natural protein, UniProt P33419 1-253, looked up) MDYSNFGNSASKKFQDDTLNRVRKEHEEALKKLREENFSSNTSELGNKKHYRAQERMSSPLHRLSPTGKSDDRKVKSPLDDKLRRQLREGNTRLPPPPFSSYGMPPTNRSNLDRIRRRTSSPVRTDKFASQNVIDDQRLEIKYLERIVYDQGTVIDNLTSRITRLESFILNSISDRGDKNFASLEHSRSFSGFPTNKTYGLQMGGLYENDMPYRRSSDNINKEGAREDRSSQIHIENESTEDILKILSSSFHN |
| binds | Spc42p (natural protein, UniProt P36094 1-363, looked up) MNGSPTPKRYSSKSSRLYDDYYNIPYQYSNPTPMNRDYNDVGSRINADKLVPEEYKRNTEFINKAVQQNKELNFKLREKQNEIFELKKIAETLRSKLEKYVDITKKLEDQNLNLQIKISDLEKKLSDANSTFKEMRFPKVKDPMVDDDPVSENYDQINVPKHRAPDATGNPRTTNKVSNTSDQDSRLKAIERTLSVLTNYVMRSEDGNNDRMSPLPSPLNTILPINNRLNFQEPKRYNPTVKVNPSDDDIMMYESAELKRVEEEIEELKRKILVRKKHDLRKLSLNNQLQELQSMMDGDDNIKLDNVSKHNHATHRHSSQSSRDYSPSSDACLECSNDLYEKNRVKPENNMSETFATPTPNNR |

Source: PMC2171418 (The Journal of Cell Biology, 2005)
